# In patent US20190203227A1 (WILLIAM MARSH RICE UNIVERSITY, published 2019):
# B1: PhyB651-His6 (other)
# chain: MVSGVGGSGGGRGGGRGGEEEPSSSHTPNNRRGGEQAQSSGTKSLRPRSNTESMSKAIQQYTVDARLHAVFEQSGESGKSFDYSQSLKTTTYGSSVPEQQITAYLSRIQRGGYIQPFGCMIAVDESSFRIIGYSENAREMLGIMPQSVPTLEKPEILAMGTDVRSLFTSSSSILLERAFVAREITLLNPVWIHSKNTGKPFYAILHRIDVGVVIDLEPARTEDPALSIAGAVQSQKLAVRAISQLQALPGGDIKLLCDTVVESVRDLTGYDRVMVYKFHEDEHGEVVAESKRDDLEPYIGLHYPATDIPQASRFLFKQNRVRMIVDCNATPVLVVQDDRLTQSMCLVGSTLRAPHGCHSQYMANMGSIASLAMAVIINGNEDDGSNVASGRSSMRLWGLVVCHHTSSRCIPFPLRYACEFLMQAFGLQLNMELQLALQMSEKRVLRTQTLLCDMLLRDSPAGIVTQSPSIMDLVKCDGAAFLYHGKYYPLGVAPSEVQIKDVVEWLLANHADSTGLSTDSLGDAGYPGAAALGDAVCGMAVAYITKRDFLFWFRSHTAKEIKWGGAKHHPEDKDDGQRMHPRSSFQAFLEVVKSRSQPWETAEMDAIHSLQLILRDSFKESEAAMNSKVVDGVVQPCRDMAGEQGIDELGAHHHHHH
# modifications: phycocyanobilin (PCB) chromophore bound after incubation with 5 uM PCB (residue not stated)
# B2: PhyB917-His6 (other)
# chain: MGASGVSGVGGSGGGRGGGRGGEEEPSSSHTPNNRRGGEQAQSSGTKSLRPRSNTESMSKAIQQYTVDARLHAVFEQSGESGKSFDYSQSLKTTTYGSSVPEQQITAYLSRIQRGGYIQPFGCMIAVDESSFRIIGYSENAREMLGIMPQSVPTLEKPEILAMGTDVRSLFTSSSSILLERAFVAREITLLNPVWIHSKNTGKPFYAILHRIDVGVVIDLEPARTEDPALSIAGAVQSQKLAVRAISQLQALPGGDIKLLCDTVVESVRDLTGYDRVMVYKFHEDEHGEVVAESKRDDLEPYIGLHYPATDIPQASRFLFKQNRVRMIVDCNATPVLVVQDDRLTQSMCLVGSTLRAPHGCHSQYMANMGSIASLAMAVIINGNEDDGSNVASGRSSMRLWGLVVCHHTSSRCIPFPLRYACEFLMQAFGLQLNMELQLALQMSEKRVLRTQTLLCDMLLRDSPAGIVTQSPSIMDLVKCDGAAFLYHGKYYPLGVAPSEVQIKDVVEWLLANHADSTGLSTDSLGDAGYPGAAALGDAVCGMAVAYITKRDFLFWFRSHTAKEIKWGGAKHHPEDKDDGQRMHPRSSFQAFLEVVKSRSQPWETAEMDAIHSLQLILRDSFKESEAAMNSKVVDGVVQPCRDMAGEQGIDELGAVAREMVRLIETATVPIFAVDAGGCINGWNAKIAELTGLSVEEAMGKSLVSDLIYKENEATVNKLLSRALRGDEEKNVEVKLKTFSPELQGKAVFVVVNACSSKDYLNNIVGVCFVGQDVTSQKIVMDKFINIQGDYKAIVHSPNPLIPPIFAADENTCCLEWNMAMEKLTGWSRSEVIGKMIVGEVFGSCCMLKGPDALTKFMIVLHNAIGGQDTDKFPFPFFDRNGKFVQALLTANKRVSLEGKVIGAFCFLQIPSPELQQALAVGGSHHHHHH
# modifications: phycocyanobilin (PCB) chromophore bound after incubation with 5 uM PCB (residue not stated)
# notes: Light-switchable phytochrome B fragment, immobilised on a Ni2+ column
# Molecular target: T1, wild-type recombinant adeno-associated virus serotype 2 (adeno-associated virus serotype 2, UniProt P03135 1-735; P03135 139-735; P03135 203-735)
# T1 construct: Assembled virus capsid; Control virus without PIF6; also called wtAAV2; wtAAV
# Experiment: Ni2+ column capture with immobilised PhyB, qPCR of viral genomes, far-red (730 nm) light
row,Binder,binding result
1,B1,no binding
2,B2,no binding
